This note sets out measurements from paper PMC10286459, “The development of an anti-cancer peptide M1-21 targeting transcription factor FOXM1” (Cell & Bioscience, 2023).

The target in assay [1] is GFP-FOXM1(688-748) (human). The experiment in a line: MST; GFP-fused FOXM1 protein as the fluorescent partner, synthesized peptide varied from 0.030 to 1000 µM; PBST (1×PBS 0.01 M, 0.05% Tween-20); 25 °C; Monolith NT.115, LED power 60%, medium MST power.
The target in assay [2] is endogenous FOXM1 protein (human (endogenous in 293T and MDA-MB-231)) (UniProt Q08050).
Chain of endogenous FOXM1 protein (human (endogenous in 293T and MDA-MB-231)) (Q08050 whole entry): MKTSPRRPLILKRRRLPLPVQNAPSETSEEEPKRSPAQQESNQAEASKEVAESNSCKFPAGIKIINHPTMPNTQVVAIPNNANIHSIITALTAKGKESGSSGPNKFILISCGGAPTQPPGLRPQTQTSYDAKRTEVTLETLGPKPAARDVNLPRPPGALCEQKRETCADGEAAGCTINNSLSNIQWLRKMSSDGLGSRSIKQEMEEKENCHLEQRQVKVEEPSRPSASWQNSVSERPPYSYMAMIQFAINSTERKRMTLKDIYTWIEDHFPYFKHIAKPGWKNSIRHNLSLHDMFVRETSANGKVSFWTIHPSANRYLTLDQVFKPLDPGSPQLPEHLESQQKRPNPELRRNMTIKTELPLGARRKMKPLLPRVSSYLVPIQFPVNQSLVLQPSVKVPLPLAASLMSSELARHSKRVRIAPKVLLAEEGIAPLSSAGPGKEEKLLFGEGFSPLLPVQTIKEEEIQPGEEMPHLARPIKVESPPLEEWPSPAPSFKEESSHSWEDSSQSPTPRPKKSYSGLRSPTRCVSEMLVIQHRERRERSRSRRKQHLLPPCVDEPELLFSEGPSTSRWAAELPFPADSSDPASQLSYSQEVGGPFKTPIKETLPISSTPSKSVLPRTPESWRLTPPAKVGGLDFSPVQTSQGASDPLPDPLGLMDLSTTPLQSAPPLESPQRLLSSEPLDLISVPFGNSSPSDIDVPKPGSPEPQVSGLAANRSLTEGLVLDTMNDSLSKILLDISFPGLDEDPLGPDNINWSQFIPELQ
The target is the same in assay [3]. This is another data set of the same source.
In the next assay the target is GFP-FOXM1 (human) (UniProt Q08050). The experiment in a line: MST; GFP-fused FOXM1 protein as the fluorescent partner, synthesized peptide varied from 0.030 to 1000 µM; PBST (1×PBS 0.01 M, 0.05% Tween-20); 25 °C; Monolith NT.115, LED power 60%, medium MST power.
Chain of GFP-FOXM1 (human) (Q08050 other isoform, or with tags, fused parts or gaps): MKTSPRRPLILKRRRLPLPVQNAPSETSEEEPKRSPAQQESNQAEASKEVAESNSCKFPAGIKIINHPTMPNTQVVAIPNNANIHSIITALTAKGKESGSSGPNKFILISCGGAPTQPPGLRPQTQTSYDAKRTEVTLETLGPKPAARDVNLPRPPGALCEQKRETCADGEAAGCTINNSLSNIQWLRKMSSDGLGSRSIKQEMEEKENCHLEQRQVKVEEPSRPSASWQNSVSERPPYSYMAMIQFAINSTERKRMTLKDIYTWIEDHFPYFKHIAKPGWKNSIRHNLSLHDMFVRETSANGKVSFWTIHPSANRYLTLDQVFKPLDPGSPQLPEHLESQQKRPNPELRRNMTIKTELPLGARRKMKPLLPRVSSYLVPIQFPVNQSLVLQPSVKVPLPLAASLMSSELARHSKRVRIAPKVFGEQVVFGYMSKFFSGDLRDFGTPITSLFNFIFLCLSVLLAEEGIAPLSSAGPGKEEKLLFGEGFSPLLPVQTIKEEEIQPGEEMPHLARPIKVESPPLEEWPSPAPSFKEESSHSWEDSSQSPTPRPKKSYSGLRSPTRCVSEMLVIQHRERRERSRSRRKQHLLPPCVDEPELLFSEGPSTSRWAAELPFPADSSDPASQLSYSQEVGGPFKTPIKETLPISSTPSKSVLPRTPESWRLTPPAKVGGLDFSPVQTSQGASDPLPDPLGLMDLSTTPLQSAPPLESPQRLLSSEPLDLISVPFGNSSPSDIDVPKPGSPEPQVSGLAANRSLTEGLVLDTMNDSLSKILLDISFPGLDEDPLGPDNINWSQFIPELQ

The Kd is the concentration at which binding is half-saturated. In turn, “TAT-101-121 (from UniProt Q08050 101-121) (peptide)” gave an equilibrium dissociation constant (Kd) in assay [1] of 5.5 µM.

Take “TAT-96-116 (from UniProt Q08050 96-116) (peptide)”: in assay [1], the Kd is 2.8 µM.

Regarding “TAT-106-126 (from UniProt Q08050 106-126) (peptide)”, the IC50 of cell viability, MDA-MB-231 cells, 48 h (trypan blue; Fig. 2C) in assay [2] is 54.3 µM. In assay [3], the IC50 of cell viability, MDA-MB-231 cells, 48 h (trypan blue) stood at 53.4 µM. Also, the Kd in assay [1] turned out to be 3.9 µM; with GFP-FOXM1 (human), 7.1 µM.
